Assay results published in article PMC12802937 (Nucleic Acids Research, 2026).
Changes are numbered by the printed parent chain. Names and notes keep the numbering of the source. One block for each binder: values may come before it.

Tests used:
Conditions in all cases: both partners purified
[1] = target: T1, RNF-MD complex (strep-SUMO-RNF20 residues 321–900 with MBP-RNF40 residues 327–926) (human, UniProt Q5VTR2 321-900; O75150 327-926); assay: SPR; RNF-MD immobilised on a CM5 chip, intein-WAC flown over; Biacore 8K, 25°C, 20 mM HEPES (pH 7.5), 200 mM sodium chloride, 0.02% Tween 20
T1 construct: RNF20, human, residues 321-900; RNF40, human, residues 327-926; heterodimer; also called RNF20/RNF40; WT; source: E. coli BL21 Rosetta (DE3), purified from the mixed cell extract (strep-tactin, dextrin, gel filtration); copies: 1 + 1

[2] = target: T2, RNF-MD S1i (E822K/R826E in RNF20 and K860E in RNF40) (human, UniProt Q5VTR2 321-900; O75150 327-926, E822K | R826E | K860E); assay: as above
T2 construct: RNF20, human, residues 321-900; RNF40, human, residues 327-926; source: E. coli BL21 Rosetta (DE3), purified from the mixed cell extract (strep-tactin, dextrin, gel filtration); copies: 1 + 1

[3] = target: T3, RNF-MD S2i (E427K/K804E in RNF20 and E428K/E431K/E434K/R442E/E832K/E835K in RNF40) (human, UniProt Q5VTR2 321-900; O75150 327-926, E427K | K804E | E428K | E431K | E434K | R442E | E832K | E835K); assay: as above
T3 construct: RNF20, human, residues 321-900; RNF40, human, residues 327-926; source: E. coli BL21 Rosetta (DE3), purified from the mixed cell extract (strep-tactin, dextrin, gel filtration); copies: 1 + 1

[4] = target: T4, RNF-MD S3i (E783K/D786K in RNF20 and E449K/K818E in RNF40) (human, UniProt Q5VTR2 321-900; O75150 327-926, E783K | D786K | E449K | K818E); assay: as above
T4 construct: RNF20, human, residues 321-900; RNF40, human, residues 327-926; source: E. coli BL21 Rosetta (DE3), purified from the mixed cell extract (strep-tactin, dextrin, gel filtration); copies: 1 + 1

[5] = target: T5, Bre1, 6× histidine tag, purified (budding yeast, UniProt Q07457 1-700); assay: co-sedimentation; 5%–45% sucrose gradient, purified Bre1, Lge1 or their mixture; 20 mM TRIS (pH 7.5), 10 mM potassium chloride, 5 mM magnesium chloride; 27 000 rpm, 15 h, 4°C
T5 construct: Bre1, budding yeast; the BRE1 gene inserted into pET26b; source: E. coli BL21 Rosetta (DE3), purified (Ni-NTA, heparin, gel filtration)
T5 sequence (looked up): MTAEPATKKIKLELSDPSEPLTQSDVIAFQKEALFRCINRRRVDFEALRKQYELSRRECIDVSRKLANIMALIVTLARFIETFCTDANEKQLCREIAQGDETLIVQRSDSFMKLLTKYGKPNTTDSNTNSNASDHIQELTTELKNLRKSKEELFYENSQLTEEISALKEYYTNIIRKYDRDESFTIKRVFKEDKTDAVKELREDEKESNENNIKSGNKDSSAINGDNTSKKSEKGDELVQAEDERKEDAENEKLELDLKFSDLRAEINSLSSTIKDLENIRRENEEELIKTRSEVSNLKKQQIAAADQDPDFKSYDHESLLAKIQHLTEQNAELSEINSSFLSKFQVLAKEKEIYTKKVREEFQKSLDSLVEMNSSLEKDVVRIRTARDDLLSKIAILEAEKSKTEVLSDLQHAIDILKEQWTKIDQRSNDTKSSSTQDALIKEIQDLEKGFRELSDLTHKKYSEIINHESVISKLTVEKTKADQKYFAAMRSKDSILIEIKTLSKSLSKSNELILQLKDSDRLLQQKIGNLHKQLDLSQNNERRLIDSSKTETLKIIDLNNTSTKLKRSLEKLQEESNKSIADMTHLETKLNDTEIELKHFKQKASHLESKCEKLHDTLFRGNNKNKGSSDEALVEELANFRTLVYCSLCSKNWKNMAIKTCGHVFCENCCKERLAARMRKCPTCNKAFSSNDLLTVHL

[6] = target: T6, Bre1-LR (Bre1 residues 227–700, LBD and RING domains), 6× histidine tag (budding yeast, UniProt Q07457 227-700); assay: SPR; Lge1-CT immobilised on a CM5 chip, Bre1-LR flown over; Biacore 8K, 25°C, 20 mM HEPES (pH 7.5), 200 mM sodium chloride, 0.02% Tween 20
T6 construct: two Bre1 polypeptides form the dimeric coiled-coils of the LBD in the crystal structure; also called WT; source: E. coli BL21 Rosetta (DE3), purified (Ni-NTA, heparin, gel filtration)
T6 sequence (looked up): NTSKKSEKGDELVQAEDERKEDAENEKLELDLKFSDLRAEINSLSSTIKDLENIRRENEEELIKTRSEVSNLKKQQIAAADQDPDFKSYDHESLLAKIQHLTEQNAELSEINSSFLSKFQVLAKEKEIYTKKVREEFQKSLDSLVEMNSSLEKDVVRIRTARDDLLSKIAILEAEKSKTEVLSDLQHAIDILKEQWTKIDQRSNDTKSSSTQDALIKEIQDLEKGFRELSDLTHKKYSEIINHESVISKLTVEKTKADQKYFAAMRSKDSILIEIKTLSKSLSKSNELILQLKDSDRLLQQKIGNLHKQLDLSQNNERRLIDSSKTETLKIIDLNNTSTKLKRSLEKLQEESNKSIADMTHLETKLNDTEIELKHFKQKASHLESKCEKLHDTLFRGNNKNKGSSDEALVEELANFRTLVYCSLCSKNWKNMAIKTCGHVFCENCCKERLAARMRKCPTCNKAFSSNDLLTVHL

[7] = target: T6, Bre1-LR (Bre1 residues 227–700, LBD and …); assay: ITC; Lge1-CT (50–60 μM) injected into Bre1-LR (15 μM); 25°C, 20 mM TRIS (pH 7.5), 200 mM sodium chloride

T4 sequence (Q5VTR2 321-900 E783K/D786K, chain 1 of 2): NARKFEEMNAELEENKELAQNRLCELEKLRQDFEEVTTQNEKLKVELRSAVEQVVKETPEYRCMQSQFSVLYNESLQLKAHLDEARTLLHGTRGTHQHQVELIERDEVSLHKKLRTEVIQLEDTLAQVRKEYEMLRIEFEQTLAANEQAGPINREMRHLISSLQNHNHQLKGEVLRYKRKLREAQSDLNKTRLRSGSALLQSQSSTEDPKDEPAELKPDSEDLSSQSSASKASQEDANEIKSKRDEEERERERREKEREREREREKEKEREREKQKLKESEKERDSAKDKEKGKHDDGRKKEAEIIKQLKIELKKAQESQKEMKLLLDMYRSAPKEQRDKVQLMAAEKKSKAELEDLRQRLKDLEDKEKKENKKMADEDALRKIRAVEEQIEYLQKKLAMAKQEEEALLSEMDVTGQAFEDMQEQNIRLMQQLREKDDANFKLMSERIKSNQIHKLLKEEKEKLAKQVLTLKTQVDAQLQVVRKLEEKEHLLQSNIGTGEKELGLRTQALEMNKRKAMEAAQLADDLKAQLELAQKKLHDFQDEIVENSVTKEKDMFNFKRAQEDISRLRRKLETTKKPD
T4 sequence (O75150 327-926 E449K/K818E, chain 2 of 2): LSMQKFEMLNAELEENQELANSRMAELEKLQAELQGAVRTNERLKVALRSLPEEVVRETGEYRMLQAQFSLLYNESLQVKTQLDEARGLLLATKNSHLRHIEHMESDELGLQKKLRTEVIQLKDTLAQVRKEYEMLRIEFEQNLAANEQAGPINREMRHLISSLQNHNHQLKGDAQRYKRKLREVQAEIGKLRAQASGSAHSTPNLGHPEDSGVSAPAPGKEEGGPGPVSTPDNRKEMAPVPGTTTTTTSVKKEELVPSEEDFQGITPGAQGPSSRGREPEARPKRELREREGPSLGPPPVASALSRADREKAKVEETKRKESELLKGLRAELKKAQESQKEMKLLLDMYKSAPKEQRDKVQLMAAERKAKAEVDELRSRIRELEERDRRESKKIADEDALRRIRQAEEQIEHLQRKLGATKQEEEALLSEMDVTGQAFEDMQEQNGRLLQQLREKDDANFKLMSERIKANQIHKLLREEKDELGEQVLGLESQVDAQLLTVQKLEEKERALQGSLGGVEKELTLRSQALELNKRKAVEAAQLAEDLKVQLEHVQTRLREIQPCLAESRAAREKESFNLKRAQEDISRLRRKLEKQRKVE
T2 sequence (Q5VTR2 321-900 E822K/R826E, chain 1 of 2): as the sequence (Q5VTR2 321-900 E783K/D786K, chain 1 of 2) above, with K463E, K466D, E502K, R506E counted along it
T2 sequence (O75150 327-926 K860E, chain 2 of 2): as the sequence (O75150 327-926 E449K/K818E, chain 2 of 2) above, with K123E, E492K, K534E counted along it
T3 sequence (Q5VTR2 321-900 E427K/K804E, chain 1 of 2): as the sequence (Q5VTR2 321-900 E783K/D786K, chain 1 of 2) above, with E107K, K463E, K466D, K484E counted along it
T3 sequence (O75150 327-926 E428K/E431K/E434K/R442E/E832K/E835K, chain 2 of 2): as the sequence (O75150 327-926 E449K/K818E, chain 2 of 2) above, with E102K, E105K, E108K, R116E, K123E, E492K, E506K, E509K counted along it
T1 sequence (Q5VTR2 321-900, chain 1 of 2): as the sequence (Q5VTR2 321-900 E783K/D786K, chain 1 of 2) above, with K463E, K466D counted along it
T1 sequence (O75150 327-926, chain 2 of 2): as the sequence (O75150 327-926 E449K/K818E, chain 2 of 2) above, with K123E, E492K counted along it

- Kd [1]: 504 nM
- koff [1]: 0.0234 s⁻¹
- kon [1]: 46400 M⁻¹ s⁻¹
- Kd [2]: 539 nM
- koff [2]: 0.0168 s⁻¹
- kon [2]: 31300 M⁻¹ s⁻¹
B1: intein-CBD-tagged WAC-CT (WAC residues 570–647) (domain or fragment, human, UniProt Q9BTA9 570-647, looked up)
chain: HVQGWPADHAEKQASRLREEAHNMGTIHMSEICTELKNLRSLVRVCEIQATLREQRILFLRQQIKELEKLKNQNSFMV
notes: WAC, human, residues 570-647; purified on Ni-NTA although no histidine tag is named; also called intein-WAC; WT; source: purified (Ni-NTA, heparin, gel filtration)

- Kd [1]: 325 nM
- koff [1]: 0.0143 s⁻¹
- kon [1]: 44100 M⁻¹ s⁻¹
B2: intein-WAC S5 (E635K/E637K/K640E) (domain or fragment, human, UniProt Q9BTA9 570-647, looked up)
chain: B1 chain with E66K, E68K, K71E
notes: WAC, human, residues 570-647; source: purified (Ni-NTA, heparin, gel filtration)

- Kd [3]: 262 nM
- koff [3]: 0.00338 s⁻¹
- kon [3]: 12900 M⁻¹ s⁻¹
B3: intein-WAC S2 (E604K/K606E/R609E/R613E/E616K) (domain or fragment, human, UniProt Q9BTA9 570-647, looked up)
chain: B1 chain with E35K, K37E, R40E, R44E, E47K
notes: as for B2

- Kd [1]: 514 nM
- koff [1]: 0.0165 s⁻¹
- kon [1]: 32000 M⁻¹ s⁻¹
B4: intein-WAC S1 (D577K/E580K/R587E) (domain or fragment, human, UniProt Q9BTA9 570-647, looked up)
chain: B1 chain with D8K, E11K, R18E
notes: as for B2

- Kd [4]: 285 nM
- koff [4]: 0.00308 s⁻¹
- kon [4]: 10800 M⁻¹ s⁻¹
B5: intein-WAC S3 (R622E/E623K/R625E) (domain or fragment, human, UniProt Q9BTA9 570-647, looked up)
chain: B1 chain with R53E, E54K, R56E
notes: as for B2

- Kd [1]: 1190 nM
- koff [1]: 0.0138 s⁻¹
- kon [1]: 11600 M⁻¹ s⁻¹
B6: intein-WAC S4 (R630E) (domain or fragment, human, UniProt Q9BTA9 570-647, looked up)
chain: B1 chain with R61E
notes: as for B2

- binding result [5]: binds
B7: Lge1, 6× histidine tag, purified (natural protein, budding yeast, UniProt Q02796 1-332, looked up)
chain: MSGYTGNNYSRYSSTPPRQRGGYHHARRSRGGAGGSYYRGGNASYGARYNSDYEQPPQEGDLRQTGAYYRNGYTDTRPYYSANSRHYQAQPSPRYNNGTNSYHLPQRGNSQDTNGRTTSASQEDNDEKRVKSRYRNMQADHPRQQPMSVGSTSSRNGSSGNSSTSSTSNGLPPPPSVSSITNNRSYHSSAYPYSSSHTYNNYHHRETPPPPPSNGYYAKGYPVHVPENRSNSDGSSSSVVKKKRILDMKDSPFIYLTDFDKNVKKTNNTESECEKAREVFKESDSIDSALEELNLKINSNELELRLLNNQCDKHALNIQLTQEKLDSLLLMQ
notes: Lge1, budding yeast; source: E. coli BL21 Rosetta (DE3), purified (Ni-NTA in 8 M urea, urea removed by washing)

- Kd [6]: 58.7 nM
- koff [6]: 0.00328 s⁻¹
- kon [6]: 55900 M⁻¹ s⁻¹
- Kd [7]: 8.06 ± 1.52 nM
- dH [7]: -61.2 ± 0.6 kcal/mol
- stoichiometry N [7]: 0.367 ± 0.001
B10: Lge1-CT L325N (domain or fragment, budding yeast, UniProt Q02796 261-332, looked up)
chain: KNVKKTNNTESECEKAREVFKESDSIDSALEELNLKINSNELELRLLNNQCDKHALNIQLTQEKNDSLLLMQ
notes: Lge1, budding yeast, residues 261-332; source: E. coli BL21 Rosetta (DE3): cleared cell extract on chitin resin (pull-down); purified (chitin, heparin, gel filtration) for ITC and SPR

- Kd [6]: 50.8 nM
- koff [6]: 0.00417 s⁻¹
- kon [6]: 82000 M⁻¹ s⁻¹
- Kd [7]: 23.7 ± 3.8 nM
- dH [7]: -49.9 ± 0.6 kcal/mol
- stoichiometry N [7]: 0.37 ± 0.002
B14: Lge1-CT L320N (domain or fragment, budding yeast, UniProt Q02796 261-332, looked up)
chain: B10 chain with L60N, N65L
notes: as for B10

The next lines start with the binder.

B8: Lge1-CT E301K/R305E (domain or fragment, budding yeast, UniProt Q02796 261-332, looked up)
chain: B10 chain with E41K, R45E, N65L
notes: as for B10
- Kd [6]: 81.7 nM
- Kd [7]: 59.7 ± 38.2 nM
- dH [7]: -19.4 ± 2.3 kcal/mol
- stoichiometry N [7]: 0.585 ± 0.022

B9: Lge1-CT K313E/H314E (domain or fragment, budding yeast, UniProt Q02796 261-332, looked up)
chain: B10 chain with K53E, H54E, N65L
notes: as for B10
- Kd [6]: 51.8 nM
- koff [6]: 0.00947 s⁻¹
- kon [6]: 183000 M⁻¹ s⁻¹
- Kd [7]: 33.9 ± 8.4 nM
- dH [7]: -43.6 ± 1.1 kcal/mol
- stoichiometry N [7]: 0.392 ± 0.005

B11: Lge1-CT L316N (domain or fragment, budding yeast, UniProt Q02796 261-332, looked up)
chain: B10 chain with L56N, N65L
notes: as for B10
- Kd [6]: 62.8 nM
- koff [6]: 0.00527 s⁻¹
- kon [6]: 84000 M⁻¹ s⁻¹
- Kd [7]: 52.2 ± 4.9 nM
- dH [7]: -65.4 ± 0.7 kcal/mol
- stoichiometry N [7]: 0.293 ± 0.002

B12: Lge1-CT K324E (domain or fragment, budding yeast, UniProt Q02796 261-332, looked up)
chain: B10 chain with K64E, N65L
notes: as for B10
- Kd [6]: 49.8 nM
- koff [6]: 0.00509 s⁻¹
- kon [6]: 102000 M⁻¹ s⁻¹
- Kd [7]: 8.77 ± 2.09 nM
- dH [7]: -48 ± 0.7 kcal/mol
- stoichiometry N [7]: 0.329 ± 0.001

B13: Lge1-CT E303K (domain or fragment, budding yeast, UniProt Q02796 261-332, looked up)
chain: B10 chain with E43K, N65L
notes: as for B10
- Kd [6]: 63.8 nM
- Kd [7]: 132 ± 24 nM
- dH [7]: -46.7 ± 2.2 kcal/mol
- stoichiometry N [7]: 0.587 ± 0.011

B15: Lge1-CT I318D (domain or fragment, budding yeast, UniProt Q02796 261-332, looked up)
chain: B10 chain with I58D, N65L
notes: as for B10
- Kd [6]: 20.7 nM
- koff [6]: 0.00155 s⁻¹
- kon [6]: 74800 M⁻¹ s⁻¹
- Kd [7]: 21.1 ± 3.7 nM
- dH [7]: -53.6 ± 0.8 kcal/mol
- stoichiometry N [7]: 0.37 ± 0.022
